Data published in IntAct's records for PubMed 25910212.

B1: PiggyBac transposable element-derived protein 1 (Homo sapiens), Q96JS3 (parent)
chain: MYEALPGPAPENEDGLVKVKEEDPTWEQVCNSQEGSSHTQEICRLRFRHFCYQEAHGPQEALAQLRELCHQWLRPEMHTKEQIMELLVLEQFLTILPKELQPCVKTYPLESGEEAVTVLENLETGSGDTGQQASVYIQGQDMHPMVAEYQGVSLECQSLQLLPGITTLKCEPPQRPQGNPQEVSGPVPHGSAHLQEKNPRDKAVVPVFNPVRSQTLVKTEEETAQAVAAEKWSHLSLTRRNLCGNSAQETVMSLSPMTEEIVTKDRLFKAKQETSEEMEQSGEASGKPNRECAPQIPCSTPIATERTVAHLNTLKDRHPGDLWARMHISSLEYAAGDITRKGRKKDKARVSELLQGLSFSGDSDVEKDNEPEIQPAQKKLKVSCFPEKSWTKRDIKPNFPSWSALDSGLLNLKSEKLNPVELFELFFDDETFNLIVNETNNYASQKNVSLEVTVQEMRCVFGVLLLSGFMRHPRREMYWEVSDTDQNLVRDAIRRDRFELIFSNLHFADNGHLDQKDKFTKLRPLIKQMNKNFLLYAPLEEYYCFDKSMCECFDSDQFLNGKPIRIGYKIWCGTTTQGYLVWFEPYQEESTMKVDEDPDLGLGGNLVMNFADVLLERGQYPYHLCFDSFFTSVKLLSALKKKGVRATGTIRENRTEKCPLMNVEHMKKMKRGYFDFRIEENNEIILCRWYGDGIISLCSNAVGIEPVNEVSCCDADNEEIPQISQPSIVKVYDECKEGVAKMDQIISKYRVRIRSKKWYSILVSYMIDVAMNNAWQLHRACNPGASLDPLDFRRFVAHFYLEHNAHLSD
partner: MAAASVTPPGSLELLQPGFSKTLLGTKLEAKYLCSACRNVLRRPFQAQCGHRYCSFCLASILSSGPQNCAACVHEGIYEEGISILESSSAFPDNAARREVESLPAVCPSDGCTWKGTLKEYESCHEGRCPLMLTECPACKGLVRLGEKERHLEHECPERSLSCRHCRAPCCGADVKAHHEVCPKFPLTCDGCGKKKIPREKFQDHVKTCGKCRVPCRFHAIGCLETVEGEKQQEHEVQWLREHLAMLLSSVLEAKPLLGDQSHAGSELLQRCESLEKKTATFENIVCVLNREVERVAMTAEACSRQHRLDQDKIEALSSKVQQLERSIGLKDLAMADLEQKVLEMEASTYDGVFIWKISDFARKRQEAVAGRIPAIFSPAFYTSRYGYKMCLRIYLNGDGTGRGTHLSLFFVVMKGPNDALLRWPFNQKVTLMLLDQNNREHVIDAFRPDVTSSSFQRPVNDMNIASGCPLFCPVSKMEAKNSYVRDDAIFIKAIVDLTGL
B2: U4/U6 small nuclear ribonucleoprotein Prp31 (Homo sapiens), Q8WWY3 (parent)
chain: MSLADELLADLEEAAEEEEGGSYGEEEEEPAIEDVQEETQLDLSGDSVKTIAKLWDSKMFAEIMMKIEEYISKQAKASEVMGPVEAAPEYRVIVDANNLTVEIENELNIIHKFIRDKYSKRFPELESLVPNALDYIRTVKELGNSLDKCKNNENLQQILTNATIMVVSVTASTTQGQQLSEEELERLEEACDMALELNASKHRIYEYVESRMSFIAPNLSIIIGASTAAKIMGVAGGLTNLSKMPACNIMLLGAQRKTLSGFSSTSVLPHTGYIYHSDIVQSLPPDLRRKAARLVAAKCTLAARVDSFHESTEGKVGYELKDEIERKFDKWQEPPPVKQVKPLPAPLDGQRKKRGGRRYRKMKERLGLTEIRKQANRMSFGEIEEDAYQEDLGFSLGHLGKSGSGRVRQTQVNEATKARISKTLQRTLQKQSVVYGGKSTIRDRSSGTASSVAFTPLQGLEIVNPQAAEKKVAEANQKYFSSMAEFLKVKGEKSGLMST
partner: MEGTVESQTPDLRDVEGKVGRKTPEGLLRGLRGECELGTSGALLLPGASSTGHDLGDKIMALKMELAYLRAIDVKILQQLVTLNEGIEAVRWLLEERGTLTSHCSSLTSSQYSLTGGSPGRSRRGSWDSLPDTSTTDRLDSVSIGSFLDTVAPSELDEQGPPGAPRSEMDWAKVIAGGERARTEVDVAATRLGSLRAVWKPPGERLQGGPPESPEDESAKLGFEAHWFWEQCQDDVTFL
B3: Galactose-1-phosphate uridylyltransferase (Homo sapiens), P07902 (parent)
chain: MSRSGTDPQQRQQASEADAAAATFRANDHQHIRYNPLQDEWVLVSAHRMKRPWQGQVEPQLLKTVPRHDPLNPLCPGAIRANGEVNPQYDSTFLFDNDFPALQPDAPSPGPSDHPLFQAKSARGVCKVMCFHPWSDVTLPLMSVPEIRAVVDAWASVTEELGAQYPWVQIFENKGAMMGCSNPHPHCQVWASSFLPDIAQREERSQQAYKSQHGEPLLMEYSRQELLRKERLVLTSEHWLVLVPFWATWPYQTLLLPRRHVRRLPELTPAERDDLASIMKKLLTKYDNLFETSFPYSMGWHGAPTGSEAGANWNHWQLHAHYYPPLLRSATVRKFMVGYEMLAQAQRDLTPEQAAERLRALPEVHYHLGQKDRETATIA

Variants of: B1
Conditions: with traf2_human TRAF2, Q12933

Effect of a mutation on the interaction, with no effect:
I678V
G244E
H806D
P256L
Q248E

Variants of: B2
Conditions: with lura1_human LURAP1, Q96LR2

Effect of a mutation on the interaction, with no effect:
MSLADELLADLEEAAEEEEGGSYGEEEEEPAIEDVQEETQLDLSGDSVKTIAKLWDSKMFAEIMMKIEEYISKQAKASEVMGPVEAAPEYRVIVDANNLTVEIENEVNIIHKFIRDKYSKRFPELESLVPNALDYIRTVKELGNSLDKCKNNENLQQILTNATIMVVSVTASTTQGQQLSEEELERLEEACDMALELNASKHRIYEYVESRMSFIAPNLSIIIGASTAAKIMGVAGGLTNLSKMPACNIMLLGAQRKTLSGFSSTSVLPHTGYIYHSDIVQSLPPDLRRKAARLVAAKCTLAARVDSFHESTEGKVGYELKDEIERKFDKWQEPPPVKQVKPLPAPLDGQRKKRGGRRYRKMKERLGLTEIRKQANRMSFGEIEEDAYQEDLGFSLGHLGKSGSGRVRQTQVNEATKARISKTLQRTLQKQSVVYGGKSTIRDRSSGTASSVAFTPLQGLEIVNPQAAEKKVAEANQKYFSSMAEFLKVKGEKSGLMST [L107V]

Variants of: B3
Conditions: with TNK2, Q07912-2
Chain of TNK2, Q07912-2 (Q07912 other isoform, or with tags, fused parts or gaps): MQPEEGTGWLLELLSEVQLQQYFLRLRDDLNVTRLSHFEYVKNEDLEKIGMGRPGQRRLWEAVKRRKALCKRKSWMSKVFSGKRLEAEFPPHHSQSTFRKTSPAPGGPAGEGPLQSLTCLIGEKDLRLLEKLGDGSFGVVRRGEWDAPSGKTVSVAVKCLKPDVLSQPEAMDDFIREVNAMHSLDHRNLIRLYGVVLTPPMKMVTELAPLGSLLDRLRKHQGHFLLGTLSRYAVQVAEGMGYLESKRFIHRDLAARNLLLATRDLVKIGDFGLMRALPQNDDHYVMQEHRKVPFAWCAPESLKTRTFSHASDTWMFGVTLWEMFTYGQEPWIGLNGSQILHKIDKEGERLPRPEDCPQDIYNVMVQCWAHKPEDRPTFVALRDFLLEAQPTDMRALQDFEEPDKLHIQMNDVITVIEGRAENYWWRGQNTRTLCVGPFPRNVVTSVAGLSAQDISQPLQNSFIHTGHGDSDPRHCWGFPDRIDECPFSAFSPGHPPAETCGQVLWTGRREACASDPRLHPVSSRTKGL

Effect of a mutation on the interaction, with no effect:
R272H
H319Q
G175D
